These results are taken from patent US8022177B2, “Peptides and calcium regulation in mammalian cells” (The Board of Trustees of the University of Illinois, priority 2005, dated 2011).

In this assay the target is T1, Cav3.1 (Homo sapiens, UniProt O43497).
T1 construct: expressed in transfected cells; host or cells: HEK-293, stably transfected
The experiment in a line: Whole-cell patch clamp of Cav3.1 current in Cav3.1-HEK cells transfected with γ6, γ4, their first transmembrane domains or point mutants (Example 3). The assay is classed as cell-based. Set-up: Activation K / Inactivation K: unit not given here. As to conditions: for Peak current density: Cav3.1-HEK cells, control 48.43±2.62; for Calcium current density (unit not given): Example 2, control −48.39+/−2.6, fusion series control −46.9+/−5; for Normalized Current Density: relative to vector control (100.0%), Table 3.3. How it is done: Transfection. HEK-293 cells stably transfected with the Cav3.1 α1 subunit were transiently transfected with vectors containing GFP and γ subunits cDNA when the cultures reached 50% confluency. Lipofectamine 2000 reagent (Invitrogen) was used following manufacturer's protocol.
Electrophysiology. Whole cell Ca2+ currents were recorded at room temperature using an Axon Instruments Axopatch-1D amplifier, a Digidata 1200 interface and pClamp8.0 software about 48 hours after transfection. Cell capacitance was typically around 10 pF, but ranged from 5-40 pF. Recording micropipettes were made from borosilicate glass (2-3 Mohms tip resistance), and filled with solution contained (in mM) 130 NaCl, 10 EGTA, 2 MgCl2, 1 CaCl2, 10 HEPES, 3 Tris-ATP, and 0.3 Li2GTP or 0.3 Tris-GTP. Tyrode's solution was used as the bath solution. It contained (in mM) 137 NaCl, 1 KCl, 1 MgCl2, 0.33 NaH2PO4, 2 CaCl2, 10 HEPES. Both solutions were adjusted to pH 7.4 with NaOH and 280 mOsm with sucrose.
We determined the biophysical characteristics of Cav3.1 currents in transfected HEK-293 cells and effects of the first transmembrane domain of γ4 and γ6 on these properties. Test parameters were optimized for studying Cav3.1 current. The time constant (τ) of deactivation (τdeac) was obtained by single exponential fitting of tail currents. For Cav3.1 currents, the cells were clamped at a holding potential of −100 mV, then depolarized to −20 mV for 4 msec, and repolarized to various voltages from −120 mV to −60 mV at 10 mV interval for 150 msec to elicit tail currents.
The voltage dependence of activation was measured using tail currents. For Cav3.1 currents, the cells were clamped at a holding potential equal to −100 mV, and then depolarized briefly to a conditioning potential, varying from −90 mV to +60 mV, and finally clamped at −60 mV before inactivation. Using this protocol, all tail currents are elicited at the same driving force (at −60 mV), so the current amplitude accurately reflects the number of channels opened during the different conditioning potentials.
A series of conditioning prepulses of 500 msec were used to measure voltage dependence of inactivation in our experiments. Channels initially open and then reach steady-state inactivation during the 500 msec long prepulses. The membrane potential is stepped to a fixed test potential of −20 mV, where maximal peak current is elicited. Currents elicited at each test potential reflect how many channels are not in the inactivated state after a steady-state inactivation; that is, how many channels are available to open. The conditioning prepulse potentials were changed from −120 mV to 50 mV, and the test potential is fixed at −20 mV.
Data collection and analysis. To probe the structural features necessary for the function of γ subunits, we are using HEK-293 cell line stably transfected with Cav3.1 α1 subunit. These cells are then transiently transfected with vectors containing various chimeric, truncated or mutant gamma subunits. […] There is inherent variation in calcium current density in the HEK-Cav3.1 stable cell line likely due to differences in the batch used, passenger number, extent of cellular confluence, or for other unknown reasons. The averaged current density of each test group of cells was normalized to the mean current density of a parallel control group of cells plated from the same batch of cells and analyzed on the same day. A minimum of 5 cells (typically 7 to 10) from each group was used to calculate the mean behavior of test and control cells from each days recording. At least two independent transfections were performed for each test condition. Overall, averages were obtained from 21 control groups of cells that had been transfected with empty vector over several months. The data are pooled together to reduce the variance. […] The current density of the control cells over many months justified the pooling of data recorded from different batches of cells transfected with mutated γ subunits. […]

Values joined by “and” are separate entries in the source; they are usually repeats but may differ in a detail not shown here. Equal entries are not always repeated.

T1 sequence (O43497 whole entry): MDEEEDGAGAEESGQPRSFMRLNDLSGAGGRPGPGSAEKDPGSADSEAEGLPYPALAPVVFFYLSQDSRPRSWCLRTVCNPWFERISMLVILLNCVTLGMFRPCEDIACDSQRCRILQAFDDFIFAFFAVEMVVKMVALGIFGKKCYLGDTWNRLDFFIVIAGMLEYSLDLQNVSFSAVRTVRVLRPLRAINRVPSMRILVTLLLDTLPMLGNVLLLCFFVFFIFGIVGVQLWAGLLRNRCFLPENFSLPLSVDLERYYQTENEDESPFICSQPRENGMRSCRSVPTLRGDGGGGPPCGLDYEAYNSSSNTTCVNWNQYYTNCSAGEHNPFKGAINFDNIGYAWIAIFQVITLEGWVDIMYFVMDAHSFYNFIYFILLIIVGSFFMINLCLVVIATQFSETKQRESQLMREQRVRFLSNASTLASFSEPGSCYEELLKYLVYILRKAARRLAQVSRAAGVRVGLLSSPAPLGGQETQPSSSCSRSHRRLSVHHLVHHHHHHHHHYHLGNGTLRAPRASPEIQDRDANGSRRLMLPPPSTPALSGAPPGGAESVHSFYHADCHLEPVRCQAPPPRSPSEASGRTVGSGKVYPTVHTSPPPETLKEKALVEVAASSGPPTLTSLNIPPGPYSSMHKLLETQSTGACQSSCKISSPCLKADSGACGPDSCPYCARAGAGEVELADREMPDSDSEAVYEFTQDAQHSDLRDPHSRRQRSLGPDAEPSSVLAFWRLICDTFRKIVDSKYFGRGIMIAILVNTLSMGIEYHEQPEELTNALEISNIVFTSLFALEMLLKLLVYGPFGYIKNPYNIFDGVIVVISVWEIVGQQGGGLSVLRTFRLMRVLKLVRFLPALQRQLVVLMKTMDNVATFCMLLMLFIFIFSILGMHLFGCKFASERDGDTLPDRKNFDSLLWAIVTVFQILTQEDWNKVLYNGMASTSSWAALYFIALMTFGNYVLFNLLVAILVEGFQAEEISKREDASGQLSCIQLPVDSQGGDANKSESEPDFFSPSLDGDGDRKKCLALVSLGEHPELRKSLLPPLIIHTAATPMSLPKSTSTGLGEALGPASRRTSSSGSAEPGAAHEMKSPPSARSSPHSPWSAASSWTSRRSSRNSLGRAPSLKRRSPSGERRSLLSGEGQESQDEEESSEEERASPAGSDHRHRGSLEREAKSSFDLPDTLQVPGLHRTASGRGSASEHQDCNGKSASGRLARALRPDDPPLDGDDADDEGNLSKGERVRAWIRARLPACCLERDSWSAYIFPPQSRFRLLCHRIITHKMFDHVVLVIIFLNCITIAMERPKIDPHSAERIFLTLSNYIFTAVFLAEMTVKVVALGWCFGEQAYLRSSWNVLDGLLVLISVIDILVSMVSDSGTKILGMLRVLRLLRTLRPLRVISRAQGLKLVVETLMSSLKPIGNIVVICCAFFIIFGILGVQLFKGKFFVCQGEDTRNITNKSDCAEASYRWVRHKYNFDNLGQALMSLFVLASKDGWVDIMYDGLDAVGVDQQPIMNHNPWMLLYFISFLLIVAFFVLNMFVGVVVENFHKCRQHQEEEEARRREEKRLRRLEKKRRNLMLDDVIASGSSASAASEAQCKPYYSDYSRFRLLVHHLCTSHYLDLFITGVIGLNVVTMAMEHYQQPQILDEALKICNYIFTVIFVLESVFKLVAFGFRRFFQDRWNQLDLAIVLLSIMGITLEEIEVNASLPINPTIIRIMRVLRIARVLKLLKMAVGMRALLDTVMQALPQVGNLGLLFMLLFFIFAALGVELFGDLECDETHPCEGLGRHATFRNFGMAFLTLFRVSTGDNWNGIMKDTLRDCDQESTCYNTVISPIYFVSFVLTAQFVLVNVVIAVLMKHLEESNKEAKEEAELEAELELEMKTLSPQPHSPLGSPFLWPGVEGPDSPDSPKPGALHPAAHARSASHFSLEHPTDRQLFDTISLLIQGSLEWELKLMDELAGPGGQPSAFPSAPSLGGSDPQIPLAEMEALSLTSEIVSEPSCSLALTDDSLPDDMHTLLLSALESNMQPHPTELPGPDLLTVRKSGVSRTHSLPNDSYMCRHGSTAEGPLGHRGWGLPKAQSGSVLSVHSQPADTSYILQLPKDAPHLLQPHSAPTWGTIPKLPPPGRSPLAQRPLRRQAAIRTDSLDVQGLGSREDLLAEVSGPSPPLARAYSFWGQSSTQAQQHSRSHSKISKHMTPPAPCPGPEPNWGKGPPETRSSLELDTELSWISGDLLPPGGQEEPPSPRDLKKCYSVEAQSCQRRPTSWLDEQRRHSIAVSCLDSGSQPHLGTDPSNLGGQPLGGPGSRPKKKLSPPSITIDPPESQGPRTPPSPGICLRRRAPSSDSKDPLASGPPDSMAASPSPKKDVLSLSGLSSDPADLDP

B1: γ6L: rat calcium channel γ6 subunit, long isoform (AF361343), SEQ ID NO:48 (protein, listed as Rattus norvegicus)
chain: MMWSNFFMQEEDRRRTAVGRRRAQEQQNLGLTPEREGKIKLGLLVAIVGATLAVLAVGTEFWVELNTYKTNGSAVCEAAHLGLWKVCIKRLWQADVPAGRETCGPAELPGEANCTYFKFFTTGENAHIFQRTTKKEVNLAAAVIAVLGLTAMALGCLCVIMVLSKGAEFLLRLGAVCFGLSGLLLFVSLEVFRHSVRALLQGVNPETPPAPRLAYEYSWSLGCGVGAGLILLLGGVCFLLLTLPSWPWRSLCPKRGGPTA
As to B1, the Peak current density stood at 27.85±3.32 pA/pF and the “Calcium current density (unit not given)” value was −7.8+/−3.3. The “Decrease of peak current density from control” value (TM1 series, vs blank vector) is 42%. Moreover, where the note is “Table 3.2”, the “Activation K” value is on record as 11.99 ± 1.39, the “Activation V½” value was −28.12 ± 4.07 mV, the “Deactivation τ @−100 mV” value stood at 2.22 ± 0.19 ms and the “Inactivation K” value is reported as −5.42 ± 0.34. In addition, for the setting “Table 3.2”, the “Inactivation V½” value is −67.53 ± 4.81 mV, the “Inactivation τ @−20 mV” value is reported as 23.9 ± 1.6 ms and the “Time to peak @−25 mV” value is reported as 9.03 ± 0.57. The molecule also displayed an Averaged peak current (group transfected with γ6, n=10) of −344.2±48.4 pA. Moreover, the “Decrease of Cav3.1 peak current density from control” value (mutant series, control 100%±4.4%) amounted to 45%. Moreover, the “Normalized Current Density” value (listed as γ6) was 55.4%±5.7% and 55.4%.

B2: γ4: rat calcium channel γ4 subunit (AF361341), SEQ ID NO:47 (protein, listed as Rattus norvegicus)
chain: MVRCDRGLQMLLTTAGAFAAFSLMAIAIGTDYWLYSSAHICNGTNLTMDDGPPPRRARGDLTHSGLWRVCCIEGIYKGHCFRINHFPEDNDYDHDSSEYLLRIVRASSVFPILSTILLLLGGLCIGAGRIYSRKNNIVLSAGILFVAAGLSNIIGIIVYISSNTGDPSDKRDEDKKNHYNYGWSFYFGALSFIVAETVGVLAVNIYIEKNKELRFKTKREFLKASSSSPYSRMPSYRYRRRRSRSSSRSTEASPSRDASPVGLKITGAIPMGELSMYTLSREPLKVTTAASYSPDQDAGFLQMHDFFQQDLKEGFHVSMLNRRTTPV
Take B2: the Peak current density is 48.28±3.30 pA/pF; the “Calcium current density (unit not given)” value is recorded as −56.3+/−5; the “Normalized Current Density” value is 116.02%±11.4% and 116.0%. Under “Table 3.2”, the “Activation K” value is 12.83 ± 0.79, the “Activation V peak” value was −29.44±1.89 mV, the “Activation V½” value is reported as −31.62 ± 3.24 mV and the “Deactivation τ @−100 mV” value is 2.20 ± 0.11 ms. For the setting “Table 3.2”, the “Inactivation K” value was −6.04 ± 0.24, the “Inactivation V½” value is −67.77 ± 1.86 mV, the “Inactivation τ @−20 mV” value was found to be 27.3 ± 1.4 ms and the “Time to peak @−25 mV” value stood at 8.37 ± 0.39.
